# ± gives the uncertainty stated by the source.
# Test: protein stability index of a GFP-peptide fusion (yeast GPS) (PSI 1-4); higher = more stable; sorted into four equal gates, so the index is relative within each strain
# Procedure, shortened: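 Mid-log yeast cultures in leucine-free medium, carrying a pooled plasmid library, were sorted into four equal gates by their GFP/Cherry fluorescence ratio. Each plasmid expressed Cherry along with GFP fused upstream of a tiled 17-residue yeast protein peptide. Plasmids recovered from each gate were PCR-amplified and Illumina-sequenced, with reads assigned to strains by barcodes. The protein stability index was obtained by summing each gate's read frequency weighted by its gate number.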
Sequence,protein stability index (doa10∆),protein stability index (pdr5∆),protein stability index (san1∆),protein stability index (ubr1∆)
YMDSMNEKVAVMRNTYN [GAL11],2.72 ± 0.13,3.24 ± 0.062,2.35 ± 0.069,2.34 ± 0.098
VKDEAFDDLLKPVYKGK [RET1],3.35 ± 0.16,3.32 ± 0.15,3.3 ± 0.11,3.12 ± 0.17
FMHDPSVFYNIANMVLP [SIR2],2 ± 0.05,2.03 ± 0.04,1.85 ± 0.054,1.7 ± 0.036
VYKFMSLAKSSALWSSR [ECM29],–,1.97 ± 0.16,1.39 ± 0.2,1.74 ± 0.29
NLEESSKLDIYTQQQAL [RET1],2.9 ± 0.087,2.77 ± 0.078,2.47 ± 0.07,2.94 ± 0.079
KKPRKPRQTKKAKAQAQ [PGD1],3.2 ± 0.13,3.48 ± 0.096,3.22 ± 0.062,3.12 ± 0.1
GLTNWAAAYATGLLIAR [RPL5],1.39 ± 0.18,1.26 ± 0.084,1.14 ± 0.13,1.1 ± 0.027
EYQSLMSLKDKLLIQID [SMC1],2.13 ± 0.077,2.62 ± 0.082,2.41 ± 0.2,2.38 ± 0.092
AGILRGYDIFLNVVLDD [SMX2],3.14 ± 0.055,2.38 ± 0.06,2.51 ± 0.084,2.75 ± 0.051
RVAASFSQEALQYVVER [FAS1],1.06 ± 0.091,1.19 ± 0.11,–,1.14 ± 0.089
AFTCFCIKKIMENNEPA [SRB8],2.21 ± 0.062,2.64 ± 0.077,2.38 ± 0.09,2.15 ± 0.079
IQEQRVKDKQSKVSDDS [RPN8],1.97 ± 0.11,2.79 ± 0.13,–,2.92 ± 0.13
NRRWTQRRGPLVVYAED [RPL4A],2.44 ± 0.16,2.48 ± 0.17,2.12 ± 0.093,2.16 ± 0.1
ENSFYKKEASKTKWDRK [POP1],2.25 ± 0.063,2.37 ± 0.063,2.3 ± 0.068,2.22 ± 0.048
EGLTYKYPARRIHTNDN [SSN3],2.78 ± 0.072,2.89 ± 0.073,2.86 ± 0.076,2.83 ± 0.055
GFKTPKTAIEGSYIDKK [RPS11A],2.98 ± 0.043,3.21 ± 0.052,3.12 ± 0.032,3.201 ± 0.031
KRVVVPQALRVLRLKPG [RPL16A],3.05 ± 0.087,3.11 ± 0.1,3.15 ± 0.056,2.09 ± 0.12
AEEIGVEHLLRDVRDQA [RPN8],3.2 ± 0.14,–,2.96 ± 0.15,–
AEEAAAEEEEESDDDMG [RPP0],3.62 ± 0.12,2.94 ± 0.15,3.23 ± 0.056,3.27 ± 0.068
RTNNVPMIKAEETPSKT [NUT1],2.9 ± 0.1,2.86 ± 0.084,2.43 ± 0.097,2.66 ± 0.078
LNYGVYLNGTLIGSIRF [RET1],1.43 ± 0.07,2.29 ± 0.097,2.53 ± 0.088,2.71 ± 0.088
DNHSGDATANATANATA [DSN1],3.22 ± 0.12,3.08 ± 0.064,3.32 ± 0.089,3.13 ± 0.071
VFPSSILDITDEELVSH [RPP0],2.89 ± 0.067,2.94 ± 0.1,3.26 ± 0.068,2.99 ± 0.065
ASELANPYSSYVSQIRK [YAR002W/NUP60],3.22 ± 0.17,2.9 ± 0.13,2.31 ± 0.17,1.92 ± 0.073
IPNQEVLQYSDWESDLH [YDL116W/NUP84],2.1 ± 0.056,2 ± 0.056,2.43 ± 0.043,2.18 ± 0.057

Sequence,protein stability index (doa10∆),protein stability index (pdr5∆),protein stability index (san1∆),protein stability index (ubr1∆)
PTKAAQRARDQDSIDIS [GAL11],3.21 ± 0.094,3.16 ± 0.081,3.36 ± 0.077,3.22 ± 0.073
EDGTIESYNQNDWKLET [SIN4],3.29 ± 0.22,3.02 ± 0.2,3.22 ± 0.12,2.98 ± 0.11
SVISGNLSLYEATAASH [CSN12],2.28 ± 0.063,2.87 ± 0.068,2.8 ± 0.069,2.7 ± 0.057
LQSLTSKGYVKTQFSWQ [RPS10A],3.2 ± 0.1,2.94 ± 0.096,2.76 ± 0.086,3.07 ± 0.065
NSWFDVTWRTFTGDFLR [FAS1],2.75 ± 0.11,1.93 ± 0.093,1.98 ± 0.12,2.61 ± 0.069
TGLKLYSRITLIIDDPS [RPP1],2.22 ± 0.065,2.8 ± 0.077,2.17 ± 0.062,2.75 ± 0.086
GRSNEIVKTTTKQRLDA [PRP8],3.06 ± 0.073,2.78 ± 0.11,2.63 ± 0.13,3.2 ± 0.052
IESQNLDLIPHSSSVFK [SRB4],2.46 ± 0.059,2.9 ± 0.053,2.55 ± 0.067,2.73 ± 0.038
ELQIFKTANSSSDAFEK [YIL149C/MLP2],2.44 ± 0.049,2.73 ± 0.049,2.61 ± 0.061,2.75 ± 0.049
FDNFLTEEELQAAVPDN [BRN1],2.93 ± 0.071,2.71 ± 0.071,2.54 ± 0.068,2.65 ± 0.051
VSDSEIIDLNLHSFTKQ [POP6],2.72 ± 0.061,2.85 ± 0.062,2.41 ± 0.061,2.73 ± 0.044
MAILLLYNDADVLTLEN [CDC53],1.58 ± 0.09,1.93 ± 0.063,2.5 ± 0.084,2.75 ± 0.06
VNIEPFNIDDEIKHGVF [LIN1],3.48 ± 0.15,3 ± 0.21,3.45 ± 0.14,3.48 ± 0.077
TIVNDSNYDWLFQLLNA [RPN9],2.34 ± 0.074,2.58 ± 0.077,2.34 ± 0.078,2.61 ± 0.048
DPTLTTTTSFTTSEATA [RPN4],2.85 ± 0.075,2.98 ± 0.067,2.58 ± 0.057,2.92 ± 0.066
DIRDSSCQGNVIYRNSL [YMR129W/POM152],3.5 ± 0.22,3.21 ± 0.087,3.38 ± 0.06,3.37 ± 0.084
ADVTHFVKPGTALDAEG [DIS3],2.9 ± 0.094,3.33 ± 0.2,3.04 ± 0.076,3.08 ± 0.081
ASGLLRAYLSHSNRCIV [CSN12],1.85 ± 0.04,1.56 ± 0.04,1.7 ± 0.063,1.25 ± 0.027
ADVSIKSILQEIRRSLS [POP5],1.59 ± 0.08,2.66 ± 0.083,2.44 ± 0.14,1.32 ± 0.06
GTLLREDDNTPAGHAGN [YDL088C/ASM4],3.03 ± 0.084,2.79 ± 0.086,3.09 ± 0.054,3 ± 0.045
VFYRMQQLRRALPDVVV [RPO31],1.83 ± 0.038,1.93 ± 0.035,1.82 ± 0.074,1.99 ± 0.047
NFPEASKLSEHLNHYIL [YCG1],2.53 ± 0.29,2.51 ± 0.11,2.66 ± 0.17,2.53 ± 0.09
MFRYKTNLYKLKEERAI [PUP3],2.87 ± 0.22,2.67 ± 0.17,1.78 ± 0.17,2.1 ± 0.093
SFNMAQIPQQLYQSLTP [SNF5],2.16 ± 0.067,2.35 ± 0.072,2.14 ± 0.054,2.12 ± 0.047
YRLMIKRLNFSFVGDYM [GRR1],2 ± 0.065,1.41 ± 0.052,1.53 ± 0.095,1.51 ± 0.054

# Reference: the supplement of paper PMC9732359
